Experimental data: the supplement of paper PMC12764529
± gives the half width of the 95% confidence interval.

Experiments:
[1] = folding stability dG unfold from trypsin proteolysis; higher = more stable
Summary of the method: (§1)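 How resistant each design was to proteolysis was captured as K50, inferred by Bayesian fitting of sequencing counts. Unfolding free energy was then derived relative to a sequence-predicted unfolded-state K50 and a shared folded-state K50, per protease or combined. Digestion used trypsin and chymotrypsin at 11 threefold-diluted concentrations plus a no-protease condition, on mini-proteins under 80 residues without cysteine in a PA-tagged cDNA display construct. Designs were kept only when AlphaFold2 dimer inter-PAE was above 15.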

[2] = folding stability dG unfold from chymotrypsin proteolysis; higher = more stable
Summary of the method: as §1

[3] = folding stability dG unfold (combined trypsin and chymotrypsin); higher = more stable
Summary of the method: as §1

Sequence | folding stability dG unfold [1] [kcal/mol] | folding stability dG unfold [2] [kcal/mol] | folding stability dG unfold [3] [kcal/mol]
SAGGSDSLVTLERVEVTELEEFEEDDRPFLVKRTYTIEKVVTTDPKTGKVTTETTVTSKEEVIPPELNSAGG [r13_810_JUSTAS] | 0.807 ± 0.031 | 0.801 ± 0.18 | 0.874 ± 0.084
SAGGSAGGGMKITEITIEKDPENPDTYTITIKVDGKTYTITVKKGETLYIFDKDGKLVLEIKVDSAGGSAGG [r6_920_TrROS_Hall] | 4 ± 0.41 | 5.24 ± 0.14 | 5.1 ± 0.25
SAGSSSMVLLKVTITFTDPNGTTTTLTYTFDDPSNPEKARAAVEALAAEIKAATGASWTITMTTVPVPGSAG [r14_146_JUSTAS] | 4.59 ± 0.16 | 5.32 ± 0.066 | 5.17 ± 0.12
SAGGSAGGSEEIKKAIEEALKKMKPGEEKEVTIEIYDKKTNKKIAKIKIRIRRKKDGKLEIEFSAGGSAGGS [r20_151_TrROS_Hall] | 4.01 ± 0.2 | 3.6 ± 0.19 | 3.77 ± 0.19
SKIKILIAMTEDEIKKLAEELKKKGYEIKIKVKKIEKKKVKVKNKDGKTYEKEVVLVEVEIEIVPKGVKPSA [r9_991_TrROS_Hall] | 2.73 ± 0.43 | 3.98 ± 0.32 | 3.27 ± 0.73
SAGGSAGGGEMELVLTVPPEEVTPEQLLELVEEIREALEKGGAKAEPVKIDPEKGVVILFRVDPSAGGSAGG [r6_850_TrMRF] | -0.273 ± 0.14 | 0.258 ± 0.27 | 0.00838 ± 0.26
SAGGSAGGSMTIDGNALYEELGKDLPDEEKRKLFEEKAEEIAKKLGIPNMKVNINIKKPNEIKSAGGSAGGS [r12_666_JUSTAS] | -0.213 ± 0.093 | 0.135 ± 0.051 | 0.0998 ± 0.078
SAGGSAGGSEEEKLKKLKEKLKPPKIKVKIEVKVEYDKETGKLKVEATVEINGKKYKLTIEFPSAGGSAGGS [r20_230_TrROS_Hall] | 3.11 ± 0.19 | 4.19 ± 0.13 | 3.49 ± 0.71
SAGGSAGGSAGYTVSVSVETETLKYLDPETGELVEEETLVRVTITITPPPPAPPNLPENLSAGGSAGGSAGG [r17_493_TrROS_Hall] | 2.37 ± 0.23 | 2.76 ± 0.051 | 2.65 ± 0.23
SAGGKKKYRIKITYKDEGKLYEVPEDVKATVDPNNVVYIEVDSKEAVDELVKAIAPKDGLEVEVEPGSAGGS [r8_131_TrMRF] | 0.52 ± 0.044 | 1.18 ± 0.087 | 0.916 ± 0.093
SAGGSGMIPVTVDFPPDVSEEEIKAYVEELEKKGYKVLKVEITTEKDAKGNTLRTVTVVLAPPSLLSAGGSA [r2_442_JUSTAS] | 3.14 ± 0.048 | 3.143 ± 0.02 | 3.15 ± 0.048
SAGGSAGGSAGGTLEFTFPGEGNLLAKVRIDLGESGNVRIDVYIYDGDTLLAKATFTLNLSAGGSAGGSAGG [r7_79_TrMRF] | 4.55 ± 0.12 | 5.46 ± 0.11 | 5.48 ± 0.13
SPAAELARRLFEELGLEAELVSVDPERRRVTFRVRHPDRAPLLLEVVYDPERPVFAIALNPETGRAVVPVSA [r9_1119_TrMRF] | 1.8 ± 0.039 | 3.11 ± 0.036 | 2.73 ± 0.1
SAGGMVILVKDKDGRWRELSEEEIRRLAEELERRYNLEVEEVELEDGERYYLIRIEPPEVPGLSEEELSAGG [r13_790_TrROS_Hall] | 1.97 ± 0.059 | 2.15 ± 0.13 | 2.23 ± 0.21
SAGGPFRVRISDEVIKELKKQGLKPGKKSVKITMQYPNGWVFRGTIKIPPANPKIPLKAEPVERLDDSAGGS [r16_497_TrROS] | 0.429 ± 0.074 | 0.386 ± 0.17 | 0.482 ± 0.11
SAGGMTIELTIVAETEEEAEKAAEELARKLAELYPDLKVKVTVEKVEVKDEETGKTYLVYKVRIEIEPSAGG [r13_545_TrROS_Hall] | 4.47 ± 0.19 | 4.96 ± 0.11 | 4.95 ± 0.11

Sequence | folding stability dG unfold [1] [kcal/mol] | folding stability dG unfold [2] [kcal/mol] | folding stability dG unfold [3] [kcal/mol]
SAGGSAGGSAVPPDRPFTLPVLTLVRDPETGELYLARAEVTFLAPDPVITAARLEVFPPDADFSAGGSAGGS [r12_868_TrMRF] | 0.761 ± 0.058 | 1.69 ± 0.085 | 1.34 ± 0.09
SAGGSLVTTEFPGVTITTDPATGVLTVEASPEEVERLIEALGPEFNPVEIRRLPDGSYLLTLPVTPPSAGGS [r8_415_JUSTAS] | 2.13 ± 0.03 | 2.042 ± 0.02 | 2.1 ± 0.03
SAGGSAGGSAGGMLYVKVKTEDGEELVLEVEGMTEDEIREELAKAGFKIEEIEVYEVEPSAGGSAGGSAGGS [r10_572_TrROS_Hall] | 2.36 ± 0.093 | 2.83 ± 0.018 | 2.71 ± 0.06
SAMPIQIMVERDPDDGYIKVTIMFRSDSPEEAYELIETLFENLGVEVNIERYPEEGYFMIEVEIRLPPGSAG [r14_424_TrROS] | 3.45 ± 0.23 | 4.13 ± 0.33 | 3.89 ± 0.21
SAGGSAGGGWITIPIYIIKMKRTRRDPDGKPKPLDPNDPEDFEVVPPRPFRIPLPPEEAKKLLKSAGGSAGG [r6_219_TrROS] | -0.542 ± 0.32 | -0.464 ± 0.43 | -0.434 ± 0.24
SAGGSAGGSAGMRIVIEVPEDTTVEELAKKLADLGYEVEIRVERDENGRLLVVIEIRPKDSAGGSAGGSAGG [r11_1050_TrROS_Hall] | 2.66 ± 0.088 | 2.88 ± 0.12 | 2.8 ± 0.14
SAGGSAGGFFHIEIEWRPVKLEDLPEEDAANGKELKPGDEIWVIVKIEIYPMPPPKFDKDGELNSAGGSAGG [r6_547_TrROS] | 2.23 ± 0.19 | 3.31 ± 0.23 | 2.77 ± 0.2
SAGGSAGGSAGGKKIRIVVPKENLEKIEELAKKLGPDVKIVKVEYFKETDYVVVEVEVKSAGGSAGGSAGGS [r10_23_TrROS_Hall] | 2.16 ± 0.06 | 1.98 ± 0.075 | 2.11 ± 0.086
SAMRMISFPIESPEELEDELEEKFGVEVETFPDGMRMIKFRRNNEPVIIMIPPNNGHITIIPPEDMDKMSAG [r14_402_TrROS] | 0.685 ± 0.19 | 1.28 ± 0.21 | 1.01 ± 0.15
SAGGMLRVTATVGYAPDDPAVELAKKIAEALTPPGMKVRMKAKVTPLADGTYRIDIEVEIRPPGEPGSAGGS [r16_128_TrMRF] | 2.65 ± 0.16 | 3.64 ± 0.13 | 3.27 ± 0.14
SAGGSAGRVRVELELEIVVDTPEEARALAEELARRFPSIVRVEVEVRRRPDGRLVVRVRLEVELPPSAGGSA [r15_726_TrROS_Hall] | 3.3 ± 0.061 | 3.32 ± 0.077 | 3.31 ± 0.1
SAGGMVIRVRFRETNETVTLSPEVLEALKRGDPDALRALPEEQREALARIERVEIRPAPPVRVLPEEESAGG [r13_233_TrROS_Hall] | 2.63 ± 0.14 | 1.81 ± 0.14 | 2.29 ± 0.43
SAMTIVLTLDEIAELLGLEKGESVEELRERIRELIRRLEEEGYRVTSITIEEVDGELVITVEIEPPPPESAG [r14_158_TrROS_Hall] | 3.38 ± 0.2 | 5.23 ± 0.21 | 4.89 ± 0.21
SASKGSSMITVELTVTVPPSVSIEEVKKQFEEEFPKDAEIKVEATPVTVPANGTPVTTIKVTVTITKKESAG [r14_633_JUSTAS] | 1.27 ± 0.1 | 1.71 ± 0.11 | 1.56 ± 0.13
SAGGSAGGSAMKTFTKTFSSPEEAERAAEEIKEKLEKEGKKVKITFEKPETDTYIVTITIESAGGSAGGSAG [r3_211_JUSTAS] | 3.44 ± 0.16 | 3.93 ± 0.12 | 3.82 ± 0.19
